Assay results: the nanobody polyreactivity screen of Harvey et al. (2022)

assay: yeast display, Sf9 membrane polyspecificity reagent, FACS + sequencing; frameworks hold sequencing errors
In short: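 Synthetic nanobody libraries on Saccharomyces cerevisiae BJ5465 were galactose-induced for 36–48 hours, stained 1 hour at 4 °C with 10% biotinylated, detergent-solubilized Sf9 membrane reagent and enriched on streptavidin microbeads. FACS then separated cells into low and high (top ~1%) gates by anti-HA (expression) and streptavidin (reagent binding) fluorescence. Genes were colony-PCR amplified, MiSeq 2 × 250 sequenced and CDR-length filtered. A clone's polyreactivity label is that of its gate of origin.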

Sequence | polyreactivity (PSR sort gate)
QVQLVESGGGLVQAGGSLRLSCAASGSTSTYYAMGWYRQAPWKERELVAANTLGAGRTYADSEKGRFTISRDNAKNTVSLQMNSLKPEDTAVYYCAADGYISVNYLRYDYWGQGTQVTVSS | low polyreactivity
QVQLVESGGGLVQAGGSLRLSCAASGSTSVDYTMGLYRQAPGKERELVAAIDYNGDSTYYADSVKGRFTISRDNAKNTVYLQMNSLKPEDTAVYYCAADYLSFVVVKLYGYWGQGTQVTVSS | low polyreactivity
QVQLVESGGGLVQAGGSLRLSCAASGSTSVKYAMGWYRQAPGKERELVAAIRKRGDSTYYADSVKGRFTISRDNAKNTVYLQMNSLKPEDTAVYYCAAQYLRGRGYWGQGTQVTVSA | low polyreactivity
QVQLVESGGGLVQAGGSLRLSCAASGSTSVVNARGWSRPAPGKERELVAAISTGGASTYYADSVKGRYTISRDNAKNTVYLQMNSLKPEDTAVYYCAADLGYEYDYWGQCTQVTVSS | high polyreactivity
QVQLVESGGGLVQAGGSLRLSCAASGSTSVYYAMGWYRQAPGKERELVAAITSGGRTYYADSVKGRFTISRDNAKNTVYLQMNSLKPEDTAVYYCNKGLYYFLPTKFRLDYWGQGTQVTVSS | high polyreactivity
QVQLVESGGGLVQAGGSLRLSCAASGSTSYFNVKGWYRQAPGKERELVAAISWSGGSTYADSVKGRFTISRDNAKNTVYLQMNSLKREDTAVYYCNKDYGYVQLRFYGPGYYWGQGTQVTVSS | low polyreactivity
QVQLVESGGGLVQAGGSLRLSCAASGSTSYRYAMGWYRQAPGKERELVATITSGGRTYYADSVKGRFTISRDNAKNTVYLQMNSLKPEDTAVYYCNKLNYWYKHYYWGQGTQVTVSS | high polyreactivity
QVQLVESGGGLVQAGGSLRLSCAASGSTVDFNAMGWYRQAPGKERELVAGISRDGGSTYYADSVKGRFTISRDYAKNTVYLEMNSLKPEDTAVYYCAVEAWSVPPYDYWGQGTQVTVSS | low polyreactivity
QVQLVESGGGLVQAGGSLRLSCAASGSTVGSNAMGWYRQAPGKERELVAAISSDGSTNYADSVKGRFTISRDNAKNTVSLQMNSLKPEETAVYYCKAVVQDADWGYDYWGQGTQVTLSS | low polyreactivity
QVQLVESGGGLVQAGGSLRLSCAASGSTVNFYAMGWYRQAPGKERELVAAISWRGNTYYADSVKGRFTISRDNAKNTVYLQITSLKPEDTAVSYCDAYEWLAYTSAWYGYWGQGTQVTVSS | high polyreactivity
QVQLVESGGGLVQAGGSLRLSCAASGSTWIYAMGWYRQAPGKERELVAAISGSGDRTYYADSVKGRFTISRDNAKNTVYLLMNSLQPEDTAVYFCATVYYKSGKYDYWGQGTQVTVSS | high polyreactivity
QVQLVESGGGLVQAGGSLRLSCAASGSTYGGYAMGWYRQAPGKETELVAAISRSGSSTYYADSVKGRFTISRDNAKNTVYLQMNSLKPEDTAVYYCAKRRPALRWIYYYWGQGTQVTVSS | high polyreactivity
QVQLVESGGGLVQAGGSLRLSCAASGSTYLYYAMGWYRQAPGKEREMVAAIWSDGSTRYADSVKGRFTISRDNAKNTVYLQMNSLKPEDTAVYYCAVYNYWGQGTQVTVSS | low polyreactivity
QVQLVESGGGLVQAGGSLRLSCAASGSTYPYAMGWYRPAPGKERELVAAITWSGGNTYYADSVKGRFTISRDNAKNTVYLQMNSLKPEDTAVYYCAKSRYATQTDYNYWGQGTQVTVSS | high polyreactivity
QVQLVESGGGLVQAGGSLRLSCAASGSTYQNAMGWYRQAPGKEREFVAAISWSGGSTYYADSVKGRFTISRDNAKNTVYLQMNSLKPEDTAVYYCAAYSYFSPWYDYWGQGTQVTVSS | high polyreactivity
QVQLVESGGGLVQAGGSLRLSCAASGSTYRLYTMGWYRQAPGKERELVAAITSGGSTNYADSVKGRFTISRDNAKNTVYLQMYSLKPEDTAVYYCAKAKRFPSFDYWGQGTQVTVSS | low polyreactivity
QVQLVESGGGLVQAGGSLRLSCAASGSTYRPYAMGWYRQAPGKERELVAAITGSGGSTYYADSVKGRFTISRDNAKITDYLQMNSLKPEDTAVYYCNAVSTWRYYYWGQGTQVTVSS | high polyreactivity
QVQLVESGGGLVQAGGSLRLSCAASGSTYSTNAMGWYRQAPGKERELVAAISRSGGSTYYADTVKRRFTISRDNAKITVYLQMNRLKPEDTAVYYCARYSFRGTNVRYDYWGQGTQVTVSS | high polyreactivity
QVQLVESGGGLVQAGGSLRLSCAASGSTYSYYVMGWYRQAPGKERELVAAISRSGGRTYYADSVKGRFTISRDNAKNTVYLQMNSLKPEDTAVNYCAAREFDHPPYDYWGQGTQVTVSS | high polyreactivity
QVQLVESGGGLVQAGGSLRLSCAASGSTYTNAMGWYRPAPGKERELVAAITWSGGTTYYADSVKGRLTISRDNAKNTVYLQMNSLKPEDTAVYYCAAEYRWYSRYFNYWGQGTQVTVSS | high polyreactivity
QVQLVESGGGLVQAGGSLRLSCAASGSTYWINAMGWYRQAPGKEREFVAAIRWNGGSTNYADSVKGRFTISRDNAKNTVYLQMNSLKPEDTAVYYCAADGYIGWRHIYEYWGQGTQVTVSS | low polyreactivity
QVQLVESGGGLVQAGGSLRLSCAASGSTYWNAMGWYRQAPGKERELVAAITFRGGSTYADSLKGRFTISRDNAKNTVSLQMISLKPEDTAVYYCAKASYHRWYNVRNRAGYDYWGQGTQVTVSS | high polyreactivity

Sequence | polyreactivity (PSR sort gate)
QVQLVESGGGLVQAGGSLRLSCAASGSTYYIYAMGWYRQAPGKEREMVAAISDNGGTTYYADSVKGRFTISRDNAKNTVYLQMNSLKPEDTAVYYCNAEGWWYWYYGSYDYWGQGTQVTVSS | high polyreactivity
QVQLVESGGGLVQAGGSLRLSCAASGSTYYLYAMGWYRQAPGKERELVAVITWSDGSTYYADSVKGRFTISRDNAKNTVYFQMNSLKPEDTAVSYCAKDLDSGGRGYYWGQGTQVTVSS | low polyreactivity
QVQLVESGGGLVQAGGSLRLSCAASGSTYYNAMGWYRQAPGKERELVAAIRFRSGSTYYADSVKGRFTISRDNAKNTVYLQMNSLKPEDTAVYYCNKVPYRGYRRYGYWGQGTQVTVSS | high polyreactivity
QVQLVESGGGLVQAGGSLRLSCAASGSTYYSNAMGWYRPAPGKERELVAGIDTSDGSTNYADSVKGRFTISRDNAKNTVYLQMNSLKPEDTAVYYCAADYTQPGFVSYDYWGQGTQVTVSS | low polyreactivity
QVQLVESGGGLVQAGGSLRLSCAASGTFAGNAMGWYRQAPGKERELVAAITTGGRTYYADSVKGRFTISRDNAKNTVYLQMNSLKPEDTAVYYCAADRIRDLEFDYWGQGTKVTVSS | low polyreactivity
QVQLVESGGGLVQAGGSLRLSCAASGTFARYAMGWYRQAPGKERELVAAISRRGGSTYYADSVKGRFTISRDNAKNTVYLQMNSLKPEDTAVYYCAADNTQVRPKYDYWGQGTQVTVSS | high polyreactivity
QVQLVESGGGLVQAGGSLRLSCAASGTFFIYAMGWYRHAPGKERELVATISTGGSTNYADSVKGRFTISRDNAKNTVYLQMNSLKQEDTAVYYCAAEWLYPHDGGYPRPMDYWGQGTQVTVSS | low polyreactivity
QVQLVESGGGLVQAGGSLRLSCAASGTFFIYAMGWYRQAPGKERELVATISTGGSTNYADSVKGRFTISRDNAKNTVYLQMNSLKPEDTAVYYCAAEWLYPHDGGYPRPMDYWGQGTQVTVSS | low polyreactivity
QVQLVESGGGLVQAGGSLRLSCAASGTFKWYAMGWYRQAPGKERELVAVISSSGGTTSYADSVKGRFTITRDNAKNTVYLQMNSLKPEDTAVYYCNRVWSTSMDYWGQGTQVTVSS | high polyreactivity
QVQLVESGGGLVQAGGSLRLSCAASGTFPDYAMGWYRQAPGKERELVAAITYRGGSTYYADSVKGRFTISRDNAKNTVYLQMNSLKPEDTAVYYCAADVVNAYKSLLVGDMYYWGQGTQVTVSS | high polyreactivity
QVQLVESGGGLVQAGGSLRLSCAASGTFPGNAMGWYRQPPGKERELVATITRGGRTYYADSVKGRVTISRDNANNTVYLQMNSLKPEDTAVYYCNTSVYSGKIRGYDYGGQGTQVTVSS | high polyreactivity
QVQLVESGGGLVQAGGSLRLSCAASGTFQRYAMGWYRQAPGKERELVAGISSAGDTNYADSVKGRFTISRDNAKNTVYLQMKSLKPEDTAVYYCNAAYFAGPADDKFDYWGQGTQVTVSS | low polyreactivity
QVQLVESGGGLVQAGGSLRLSCAASGTFTVNTMGCYRQAPGKERELVAAISTGDTTTYADSVKGRFTISRDNAKNTVYLQMNSLKPEDTAVYYCNVDIGVYAYESDYWGQGTQVTVSS | low polyreactivity
QVQLVESGGGLVQAGGSLRLSCAASGTFTVNTMGWYRQAPGKVRELVAAISTGDTTTYADSVKGRFTISRDNAKNTVYLQMNSLKPEDTAVYYCIVDIGVYAYESDYWGQGTQVTVSS | low polyreactivity
QVQLVESGGGLVQAGGSLRLSCAASGTFTVNTMGWYRQAPGKVSELVAAISTGDTTTYADSVKGRFTISRDNAKNTVYFQLNSLKPEDTAVYYCNVDIGVYAYESDYWGQGTQVTVSS | low polyreactivity
QVQLVESGGGLVQAGGSLRLSCAASGTFYGKTMGWYRQAPGKERELDAVISIDGSTNYADSVKGRFTISRDNAKKTVYLQMNSLKPEDTAVYYCNARNQWRTVGKYDYWGQGTQVTVSS | low polyreactivity
QVQLVESGGGLVQAGGSLRLSCAASGTFYKYAMGWYRQAPGKERELVAAISWRGGRTYADSVKGRFTISRDNANNTVYLQMNSLKPEDTAVYYCAAEYRYDWYTYGYWGQGTQVTVSS | high polyreactivity
QVQLVESGGGLVQAGGSLRLSCAASGTFYRNAMGWYRQAPGKERELVAAISSGSNTDYADSVKGRFTISRDNAKNTVYVQMNSLKPEDTALYYCNADRGDLYDLRGSGYLDGYWGQGTQVTVSS | low polyreactivity
QVQLVESGGGLVQAGGSLRLSCAASGTIFDVNALGWYRQAPGKERELVAAITSGGGTNYADSVKGRFTISRDNAKNTVYLQMNSLKPEDTAVYYCAADHVYYDYDYWGQGTQVTVSS | low polyreactivity
QVQLVESGGGLVQAGGSLRLSCAASGTIFGEYAMGWYRQAPAKERELVADITTGGNTNYADSVKGRFTISRDNAKNTVYLQMNSLTPEATAVYYCAADFFSRDWGQGTQVTVSS | low polyreactivity
QVQLVESGGGLVQAGGSLRLSCAASGTIFNRYAMGWYRQAPGKERELVAAITRGGTTYYADSVKGRFTISRDNATNTVYLQMNSLKPEDTAVYYCAARLRYTTVIYYYWGQGTQVTVSS | high polyreactivity
